The nature of this series: label from the status in PepcDB records.
Take “MAKKSTRTTPEDSQASTTDSAATSTASEATQAATSATDDQAEQTTAVDPTQQITDLKAQLDAKDDQLLRAQAEIVNMQNRNKKEQAALLKYDGQALAKDVLPVLDNLERALATPADDEAAQQLKKGVEMVYGHLQDALKKHGVTEVAAAGEKFDPNIHQAVQTVPVDDDHPADTVVQVLQRGYLLKDRTLRPAMVVVAQ”: the protein production result is reported as “failed”.
“MAKKVVGEIKLQIPAGKANPSPPVGPALGQRGVNIMEFCKAFNERTKDMGSFNIPVIITVYQDKSFTFITKKPPVTDLIKKASGVEKGSDNPLKNKIAKLTHKQVEEIAQLKMEDLNTSTMEAAKKIVMGSARSMGVEVVD”: the protein production result is listed as “failed”.
Turning to “MAKLRVGIVFGGKSAEHEVSLQSAKNIVDAIDKTRFDVVLLGIDKAGQWHVNDAENYLQNADDPAHIALRPSAISLAQVPGKHQHQLINAQNGQPLPTVDVIFPIVHGTLGEDGSLQGMLRVANLPFVGSDVLSSAACMDKDVAKRLLRDAGLNIAPFITLTRTNRHAFSFAEVESRLGLPLFVKPANQGSSVGVSKVANEAQYQQAVALAFEFDHKVVVEQGIKGREIECAVLGNDNPQASTCGEIVLNSEFYAYDTKYIDDNGAQVVVPAQIPSEVNDKIRAIAIQAYQTLGCAGMARVDVFLTADNEVVINEINTLPGFTNISMYPKLWQASGLGYTDLISRLIELALERHTANNALKTTM”, the protein production entry is on record as “not failed”.
For “MAKLTESMTNVLEGDSMDQDVESPVAIHQPKLPKQARDDLPRHISRDRTKRKIQRYVRKDGKCNVHHGNVRETYRYLTDIFTTLVDLKWRFNLLIFVMVYTVTWLFFGMIWWLIAYIRGDMDHIEDPSWTPCVTNLNGFVSAFLFSIETETTIGYGYRVITDKCPEGIILLLIQSVLGSIVNAFMVGCMFVKISQPKKRAETLVFSTHAVISMRDGKLCLMFRVGDLRNSHIVEASIRAKLIKSKQTSEGEFIPLNQTDINVGYYTGDDRLFLVSPLIISHEINQQSPFWEISKAQLPKEELEIVVILEGMVEATGMTCQARSSYITSEILWGYRFTPVLTLEDGFYEVDYNSFHETYETSTPSLSAKELAELASRAELPLSWSVSSKLNQHAELETEEEEKNLEEQTERNGDVANLENESKV” the value was “failed”.
To “MAKNTFTPELLEKHFTKNEWKKGARIFQANGVKTCALDGEVIRGVVFSERSRESSYLTRLVFDGKFGDIASYCDCYVGRDCKHGSALAQCYIHEHFDRNSIATSETIIDKWLNRFQAQPTRYQPNTQQKSLLYFLKPNPYNEDDFLTLGIKSARPKNSGGWNSSIGSEYSASSLINSAYANDEDVAVLTELMRTNQYGDTIKYFDLFERIIKTNRSFWHTTYDLSEPVTLSEPLEAEWQWLALGNSLHTLKLVLMQPSESIRIIKAQPLCFYDEEKNCFGKINTNTQCDFEAGLLNSPIFEEDKLPWIMSKLSMSLGDAVKRLPKPKTKYSQELTQPDVYLHFTTPVASNRQTGYVQVNFSYQGNLVNPHDENVTITPSNVTKLSIDSDAQSDADSNIESGAYSNIEDEVERENVSPREIKIYRDLAFEQTVIDKLTTLKFNPQPKPKRYTYTSQDDLNKSKTPEFAMLMQGSVLWQRFLHQELSPLEDLGWHITFADDFYYKALSTDSVFDAEVMETDDHDFFSLGLNLTIDGKKMPAFPILLSAIEQLPRSALLDREKEDLISPDSPIYVDLDNGGFVALRYQSVQPILKQFIELFMPNALSHDGTIELSRFQGHQTLSMLDDQGMIAKGTSKLRALADKLKDFQQVTTIPVPEGLNATLRTYQHQGLNWLQFLREYQLNGILADDMGLGKTIQTLAHLLIEKQQGRLTKPILIVAPTSVIFNWANEIDKFTPQLSYQVLHGNKRHEQFGCLEGVENGENQVDIIITSYALITKDLAHYTDRKFYYLVLDEAHYIKNTKTKLYQAFLTLKAQHKLCLTGTPMENHLGEFWAQFNFLLPGFLGGQRQFTKLFRTPIEKHGELERKQLLNQRIKPFILRRTKDKIATELPPKTEIIQTLRIEGKQAELYESVRLAMDSRLKDIIADKGLKRSQIEVLDALLKLRQVCNHPKLLKLEGAKKVNQSAKLDYLMETLPEQIDEGRKILIFSQFTSMLSLIEDELIDAGIGYVKLTGSTTKRQEVVDKFQRGEVPVFLISLRAGGVGLNLTAADTVIHFDPWWNPAVENQATDRAYRIGQNKPVFVYKLIIENSIEEKIQKIQQNKAELAKALLSEEVSDNKLSLTDDILDSLLTPLS” belongs “failed”; to “MAKSEEIIRERYKVMAPRIIKALNQRNFEAYFCETSEKAVECALSLIPQGASVAWGGSMTLEEIGLIQRLKEGNYQVIDRDTAKSQEERFSLMRQALLSDVYLASVNAMSEDGIMVNIDGRGNRISAIAFGPKTVILVVGMNKICRDLESARKRAHTYAAPNNALRLGLELPCTKTGCCFDCNKNNPSSICAQIVEMHSSIVPGRIKVILVGENLGL”, “failed”.
In the case of “MAKSPKKSKSRLWFLVHSWLALPIWFFVLIVCFTGMLAVVSQEIVWLADPAARANKPDADTERMSFQQVLEALNKAEPDMVVERLSQPDGSHFAVKANVTLPDGTSPTLYVNPYTGTIQGRTPDFNFEAFTRALHGWWLVPFTNGFSWGWYLVSLLGLPMLASLVTGLVVYKKFWKGFFKPVRTGHGSRIFWGDLHRLSGVWSIWFIAVISITGTWFLIQAILSDNHITISSRPIVPVIAREEVPQTPDGSPASRIDLDEAARLAGLAIPGLEVTSITLPATAYSHVTLSGPGWYPLMFQSASVNPYTRNVDSQFLISDRSALEFVTESMRPLHTGDFGGLPIKLVWFFFGLILTLMVLSGLLIWTKRTAQATAAALKRSERAPRAAHSETTVEIHS”, the protein production entry was “failed”.
Take “MAKSQIEPGVPITLQELYPSSLFYKEGVSLRVTAMLRGYSVETAIGVIEDGGRSLKINTQNIRDVSFRVGSIYQFIGELHIEQPNNEARTGRNVDGIDMNLYRKTIELLRQFLKEEDNSNMVE”: the protein production result is “failed”.
In the case of “MAKVKVLFVRNLANTVTEEILEKAFSQFGKLERVKKLKDYAFIHFDERDGAVKAMEEMNGKDLEGENIEIVFAKPPDQKRKERKAQRQAA”, the protein production entry is given as “not failed”.
To “MAKVLVLNASYEPLNITHWQRAVVLLLKDKAEALENNGKLIYANFPLPSVIRLRQYIKVPYKEIPLTRRNVLERDRHTCQYCNYKGEQLTLDHVIPRSRGGGDSWENLVTACVRCNIKKGNRTPREAQMSLNYTPRRPYSSLLFEIIKHTRNDRNHEWRKYVIGILEHHHHHH” belongs “failed”.
As for “MAKVNITRDLIRRQIKERGALSFERRYHVTDPFIRRLGLEAELQGHSGCVNCLEWNEKGDLLASGSDDQHTIVWDPLHHKKLLSMHTGHTANIFSVKFLPHAGDRILITGAADSKVHVHDLTVKETIHMFGDHTNRVKRIATAPMWPNTFWSAAEDGLIRQYDLRENSKHSEVLIDLTEYCGQLVEAKCLTVNPQDNNCLAVGASGPFVRLYDIRMIHNHRKSMKQSPSAGVHTFCDRQKPLPDGAAQYYVAGHLPVKLPDYNNRLRVLVATYVTFSPNGTELLVNMGGEQVYLFDLTYKQRPYTFLLPRKCHSSGEVQNGKMSTNGVSNGVSNGLHLHSNGFRLPESRGHVSPQVELPPYLERVKQQANEAFACQQWTQAIQLYSKAVQRAPHNAMLYGNRAAAYMKRKWDGDHYDALRDCLKAISLNPCHLKAHFRLARCLFELKYVAEALECLDDFKGKFPEQAHSSACDALGRDITAALFSKNDGEEKKGPGGGAPVRLRSTSRKDSISEDEMVLRERSYDYQFRYCGHCNTTTDIKEANFFGSNAQYIVSGSDDGSFFIWEKETTNLVRVLQGDESIVNCLQPHPSYCFLATSGIDPVVRLWNPRPESEDLTGRVVEDMEGASQANQRRMNADPLEVMLLNMGYRITGLSSGGAGASDDEDSSEGQVQCRPS”, the protein production entry is “failed”.
On to “MAKVTERYDVTWEEMRDKMRKWREENSRNSEQIMEVGEELINDYASKLGDDIWIIYEQVMIAALDYGRDDLALFCLQELRRQFPGSHRVKRLTGMRFEAMERYDDAIQLYDRILQEDPTNTAARKRKIAIRKAQGKTVEAIRELNEYLEQFVGDQEAWHELAELYINEHDYAKAAFCLEELMMTNPHNHLYCQQYAEVKYTQGGLENLELSRKYFAQALKLNNRNMRALFGLYMSASHIASNPKASAKMKKDNIKYASWAANQINRAYQFAGRSKKETKYSLKAVEDMLETLQITQS”, for which the protein production result was “failed”.
Consider “MALARANSPQEALLWALNDLEENSFKTLKFHLRDVTQFHLARGELESLSQVDLASKLISMYGAQEAVRVVSRSLLAMNLMELVDYLNQVCLNDYREIYREHV”, for which the protein production entry was “not failed”.
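Further: failed if final PepcDB status was selected cloned or expressed and not failed if soluble or beyond.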
